Patent US20110052565A1 (NATIONAL RESEARCH COUNCIL OF CANADA, published 2011)

T1: porcine pancreatic α-amylase (porcine, UniProt P00690 16-511)
T1 construct: Bought (Sigma); The source is named only for the ELISA with soluble VHs; the panning and phage ELISA paragraphs say only α-amylase; also called a-amylase
T1 sequence (looked up): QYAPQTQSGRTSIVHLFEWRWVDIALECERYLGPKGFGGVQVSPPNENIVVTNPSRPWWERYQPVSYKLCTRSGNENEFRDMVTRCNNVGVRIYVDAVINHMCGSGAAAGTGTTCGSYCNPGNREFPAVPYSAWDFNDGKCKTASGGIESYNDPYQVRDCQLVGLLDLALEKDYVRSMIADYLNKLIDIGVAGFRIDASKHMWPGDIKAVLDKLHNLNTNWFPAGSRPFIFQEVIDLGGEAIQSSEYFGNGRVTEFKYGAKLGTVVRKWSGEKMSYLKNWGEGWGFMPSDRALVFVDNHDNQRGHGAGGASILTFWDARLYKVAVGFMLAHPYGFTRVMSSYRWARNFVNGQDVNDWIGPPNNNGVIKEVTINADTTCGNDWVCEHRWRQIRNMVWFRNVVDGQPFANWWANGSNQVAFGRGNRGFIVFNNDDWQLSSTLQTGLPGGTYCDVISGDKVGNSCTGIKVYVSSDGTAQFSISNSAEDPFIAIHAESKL

B1: huVHAm420 (other, not shown: small tags and cut ends)
VH: QVQLVESGGGLIKPGGSLRLSCAASGDRFSYEDMAWVPQAPGKGLEWVSAISSSGGSTYYADSVKGRFTISRDNSKNTVYLQMNSLRAEDTAVYYCVATEESCPEGNCPPPRRSWGQETMVTVSS
notes: amber codon read as Glu in E. coli TG1
B2: huVHAm406 (other, not shown: small tags and cut ends)
VH: QVQLVESGGGLIKPGGSLRLSCAASGFSFTPECMGWVRQAPGKGLEWVSAISSSGGSTYYADSVKGRFTISRDNSKNTVYLQMNSLRAEDTAVYYCVGHKNNCPGQGTMVTVSS
notes: as for B1
B3: huVHAm431 (other)
VH: QVQLVESGGGLIKPGGSLRLSCAASGYTVSSECMGWVRQAPGKGLEWVSAISSSGGSTYYADSVKGRFTISRDNSKNTVYLQMNSLRAEDTAVYYCVRDSKNCHDKDCTRPYCSWGQGTMVTVSS
notes: Human VH single-domain antibody, soluble; In the phage ELISA rows the same VH stood on phage (pIII fusion); not shown: C-terminal c-Myc-His6 tag from vector pSJF2H
B4: huVHAm412 (other, not shown: small tags and cut ends)
VH: QVQLVESGGGLIKPGGSLRLSCAASGDMLSAECMGWVRQAPGKGLEWVSAISSSGGSTYYADSVKGRFTISRDNSKNTVYLQMNSLRAEDTAVYYCVAKPYHCAVQGTMVTVSS
notes: as for B1
B5: huVHAm430 (other, not shown: small tags and cut ends)
VH: QVQLVESGGGLIKPGGSLRLSCAASGDRVSPEDMAWVRQAPGKGLEWVSAISSSGGSTYYADSVKGRFTISRDNSKNTVYLQMNSLRAEDTAVYYCVTSGVPSGSFWGQETMVTVSS
notes: as for B1
B6: huVHAm427 (other)
VH: QVQLVESGGGLIKPGGSLRLSCAASGVTLSPECMAWVRQAPGKGLEWVSAISSSGGSTYYADSVKGRFTISRDNSKNTVYLQMNSLRAEDTAVYYCVSCEGENAFWGQGTMVTASS
notes: Human VH single-domain antibody, soluble, amber codon replaced by Glu; In the phage ELISA rows the same VH stood on phage (pIII fusion); not shown: C-terminal c-Myc-His6 tag from vector pSJF2H
B7: huVHAm316 (other)
VH: QVQLVESGGGLIKPGGSLRLSCAASGDRFTYESMGWVRQAPGKGLEWVSAISSSGGSTYYADSVKGRFTISRDNSKNTVYLQMNSLRAEDTAVYYCVALETACTRPACAHTPRFWGQGTMVTVSS
notes: as for B6
B8: huVHAm303 (other, not shown: small tags and cut ends)
VH: QVQLVESGGGLIKPGGSLRLSCAASGFRFSYEVMGWVRQAPGKGLEWVSAISSSGGSTYYADSVKGRFTISRDNSKNTVYLQMNSLRAEDTAVYYCVTPKVDCETHPCRERPYFWGQGTMVTVSS
notes: as for B1
B9: huVHAm311 (other, not shown: small tags and cut ends)
VH: QVQLVESGGGLIKPGGSLRLSCAASGFRVTPECMTWVRQAPGKGLEWVSAISSSGGSTYYADSVKGRFTISRDNSKNTVYLQMNSLRAEDTAVYYCVRHEVECPTEQCPFHCPSWGQGTMVTVSS
notes: as for B1
B10: huVHAm315 (other)
VH: QVQLVESGGGLIKPGGSLRLSCAASGDMFSSEGMAWVRQAPGKGLEWVSAISSSGGSTYYADSVKGRFTISRDNSKNTVYLQMNSLRAEDTAVYYCVAAPTTCTSHNCAEPFRSWGQETMVTVSS
notes: as for B6
B11: huVHAm301 (other, not shown: small tags and cut ends)
VH: QVQLVESGGGLIKPGGSLRLPCAASGFRISHEGMGWVRQAPGKGLEWVSAISSSGGSTYYADSVKGRFTISRDNSKNTAYLQMNSLRAEDTAVYYCVAYNEECTKPSCHTKARSWGQGTMVTVSS
notes: as for B1
B12: huVHAm305 (other, not shown: small tags and cut ends)
VH: QVQLVESGGGLIKPGGSLRLSCAASGYRFNNEVMGWVRQAPGKGLEWVSAISSSGGSTYYADSVKGRFTISRDNSKNTVYLQMNSLRAEDTAVYYCVTSTPACNQDKCERWRPSWGQGTMVTASS
notes: as for B1
B13: huVHAm428 (other)
VH: QVQLVESGGGLIKPGGSLRLSCAASGFSLSDDCMGWVRQAPGKGLEWVSAISSSGGSTYYADSVKGRFTISRDNSKNTVYLQMNSLRAEDTAVYYCVTGNQACKHEPWPDEALLLGPRDNVTVSS
notes: as for B6
B14: huVHAm309 (other)
VH: QVQLVESGGGLIKPGGSLRLSCAASGVNFSNEGMAWVRQAPGKGLEWVSAISSSGGSTYYADSVKGRFTISRDNSKNTVYLQMNSLRAEDTAVYYCVTAQRACANSPCPGSITSWGQETMVTVSS
notes: as for B6
B15: huVHAm416 (other)
VH: QVQLVESGGGLIKPGGSLRLSCAASGVSFTDDCMAWVRQAPGKGLEWVSAISSSGGSTYYADSVKGRFTISRDNSKNTVYLQMNSLRAEDTAVYYCVADHTQCRQPECESQLCSWGQGTMVTVSS
notes: as for B6
B16: huVHAm302 (other)
VH: QVQLVESGGGLIKPGGSLRLSCAASGDTVSDESMTWVRQAPGKGLEWVSAISSSGGSTYYADSVKGRFTISRDNSKNTVYLQMNSLRAEDTAVYYCVTDNRSCQTSLCTSTTRSWGQGTMVTVSSGSEQKLSEEDLNHHHHHH
modifications: N-terminus pyroglutamine (pyroQ)
notes: Human VH single-domain antibody, soluble with c-Myc-His6 tag, amber codon at position 32 replaced by Glu; In the phage ELISA rows the same VH stood on phage (pIII fusion)
B17: huVHAm304 (other)
VH: VQLVESGGGLIEPGGSLRLSCAASGFSFSDEGMAWVRQAPGKGLEWVSAISSSGGSTYYADSVKGRFTISRDNSKNTVYLQMNSLRAEDTAVYYCVRLPKQCTSPDCETEVSSWGQRTMVTVSS
notes: Human VH single-domain antibody, soluble, amber codons replaced by Glu; In the phage ELISA rows the same VH stood on phage (pIII fusion); not shown: C-terminal c-Myc-His6 tag from vector pSJF2H

Molecular target: T1, porcine pancreatic α-amylase
Assay: phage ELISA, round 4 of heat denaturation panning; VH displayed on phage; member by Table 2, column R4

Binder	binding result
B1	binds
B2	binds
B3	binds
B4	binds
B5	binds
B6	binds

Molecular target: T1, porcine pancreatic α-amylase
Assay: phage ELISA, round 3 of heat denaturation panning; VH displayed on phage; member by Table 2, column R3
Method: For selection by heat denaturation, input phage in a multivalent display format was used (i.e., the phages were produced by using hyperphage for superinfection). The input phage was heated at 80° C. for 10 min, cooled at 4° C. for 20 min, centrifuged at maximum speed for 2 min in a microfuge and the supernatant was added to antigen-coated wells for binding. Three rounds of panning against α-amylase by the heat denaturation method were performed. A non-treatment panning was also carried out in parallel as control. […] Monoclonal Phage ELISA on single colonies was performed (Arbabi-Ghahroudi et al., 2009). ELISA-positive clones were subjected to DNA sequencing to identify their VHs (Arbabi-Ghahroudi et al., 2009). Isoelectric points, pIs, of the VHs were determined using the software Laser gene v6.0 (DNASTAR, Inc., Madison, Wis.).

Binder	binding result
B7	binds
B8	binds
B9	binds
B10	binds
B11	binds
B12	binds

Molecular target: T1, porcine pancreatic α-amylase
Assay: ELISA, immobilized porcine pancreatic α-amylase, His6-tagged VH, anti-His-IgG/HRP
Method: To assess binding of VHs to a-amylase by ELISA, Maxisorp™ microtiter plates (Nunc) were coated with 100 μL of 10 μg/mL porcine pancreatic α-amylase (Sigma, Oakville, ON, Canada) in PBS overnight at 4° C. After blocking with 3% bovine serum albumin (300 μL) for 2 h at 37° C. and subsequent removal of blocking agent, 100 μL His₆-tagged VHs at concentrations of a few μM were added, followed by incubation for 2 h at 37° C. Wells were washed 5× with PBST and 100 μL rabbit anti-His-IgG/horse radish peroxidase (HRP) conjugate (Bethyl Laboratories, Inc., Montgomery, Tex.) was added at a dilution of 1:5000. The wells were then incubated for 1 h at 37° C. After washing the wells with PBST, 100 μL […] substrate (KPL, Gaithersburg, Md.) was added and the reaction, seen as color development, was stopped after 5 min by adding 100 μL of 1 M phosphoric acid. Absorbance values were measured at a wavelength of 450 nm using a microtiter plate reader. […] Assays were performed in duplicates.

Binder	binding result
B13	binds
B14	binds
B15	binds

Molecular target: T1, porcine pancreatic α-amylase
Assay: told in the legend of the α-amylase inhibition figure (FIG. 10)
Method: Briefly, the enzyme at a final concentration of 1.5 μg/mL in 0.1% casein, 150 mM NaCl, 2 mM CaCl₂, 50 mM Tris-HCl pH 7.4 was preincubated with various concentrations of purified monomeric anti-α-amylase VHs at room temperature for 1 h (total volume: 50 μL). The mixture was split in two ELISA wells and to each well 75 μL of substrate solution (0.2 mM 2-chloro-4-nitrophenyl maltotrioside, 150 mM NaCl, 2 mM CaCl₂, 50 mM Tris-HCl pH 7.4) was added. […] The progress of reactions was monitored continuously at 25° C. by measuring the change in absorbance of reaction solutions at 405 nm (ΔA405 nm) using a PowerWave 340 microplate spectrophotometer (BioTek Instruments, Inc. Winooski, Vt.). […] The VHs was thus analyzed by ELISA.

Binder	binding result
B16	binds

Molecular target: T2, bovine serum albumin (bovine, UniProt P02769 25-607)
T2 construct: also called BSA
Assay: ELISA, immobilized BSA, His6-tagged VH detected with anti-His-IgG/HRP (FIG. 9A)

T2 sequence (P02769 25-607 limits assumed): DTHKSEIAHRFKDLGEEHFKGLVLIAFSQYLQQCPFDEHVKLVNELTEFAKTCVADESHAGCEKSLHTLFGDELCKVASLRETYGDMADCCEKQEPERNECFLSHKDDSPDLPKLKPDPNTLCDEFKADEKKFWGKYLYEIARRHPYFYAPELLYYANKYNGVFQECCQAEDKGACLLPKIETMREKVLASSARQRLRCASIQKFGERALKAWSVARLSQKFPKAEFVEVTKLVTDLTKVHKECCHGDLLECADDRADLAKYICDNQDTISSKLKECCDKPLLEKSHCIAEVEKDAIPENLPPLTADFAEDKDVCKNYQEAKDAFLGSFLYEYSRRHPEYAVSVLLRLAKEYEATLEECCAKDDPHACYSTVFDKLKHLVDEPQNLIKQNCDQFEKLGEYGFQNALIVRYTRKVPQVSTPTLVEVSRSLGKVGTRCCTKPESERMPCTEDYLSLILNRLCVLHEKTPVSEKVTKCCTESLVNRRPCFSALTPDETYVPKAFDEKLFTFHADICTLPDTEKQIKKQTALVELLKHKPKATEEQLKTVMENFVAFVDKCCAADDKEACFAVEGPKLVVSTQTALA

Binder	binding result
B17	no binding
B13	no binding
B14	no binding
B15	no binding

Molecular target: T3, protein A (UniProt P38507 37-477)
T3 construct: Immobilized unconjugated on a CM5 chip in SPR; used as HRP conjugate in the ELISA; also called protein A/HRP conjugate; horseradish peroxidase-protein A conjugate
Assay: SPR (Biacore 3000), protein A immobilized; KD of native VH over KD of heat-denatured/cooled VH, unfolded at 5 µM
Method: (§1) Immobilizations were carried out at a protein concentration of 50 μg/mL in 10 mM acetate buffer pH 4.5 using amine coupling kit supplied by the manufacturer. AD VHs were passed though Superdex™ 75 column (GE Healthcare) and the monomeric species were collected for refolding efficiency experiments. To obtain refolding efficiency values, VHs were incubated at 85° C. for 20 min at the concentration of 0.5 and 5 μM and were cooled to room temperature for 30 min. The VHs were centrifuged at 16,000 g in a microfuge for 5 min at 22° C. to pellet and remove any possible aggregates. […] The surfaces were washed thoroughly with the running buffer for regeneration. Refolding efficiencies were calculated from the amounts bound at steady state. Data were analyzed with BIAevaluation 4.1 software.

Binder	TRE (%) (ratio of KDn to KDref)
B17	87
B13	86
B14	93
B15	97

Molecular target: T3, protein A
Assay: SPR (Biacore 3000), protein A immobilized; KD of native VH over KD of heat-denatured/cooled VH, unfolded at 0.5 µM
Method: as §1

Binder	TRE (%) (ratio of KDn to KDref)
B17	99
B13	89
B14	94
B15	100
